# From publication PMC6443961, “Von Willebrand Factor Mediates Pneumococcal Aggregation and Adhesion in Blood Flow” (Frontiers in Microbiology, 2019)
# Where “and” joins values, the source holds several entries; their conditions need not be identical. Equal values may be shown once.
# Assays:
# [1] = target: recombinant enolase of S. pneumoniae serotype 2 (ATCC 11733) (Streptococcus pneumoniae serotype 2 (ATCC 11733)) (UniProt Q97QS2); assay: SPR; rEno immobilised by amine coupling on CM5 chip (BIAcore T200), VWF or A domains as analyte, PBS pH 7.4 with 0.05% Tween 20, 25°C, 10 μl/min, 1:1 Langmuir model
# [2] = target: recombinant enolase protein (rEno) of S. pneumoniae serotype 2 (ATCC 11733) (Streptococcus pneumoniae serotype 2 (ATCC 11733)) (UniProt Q04KG2); assay: SPR; rEno immobilised by amine coupling on CM5 chips (BIAcore T200); PBS pH 7.4 with 0.05% Tween 20, 25°C, 10 µl/min; analytes plasma VWF 0.625-10.0 µg/ml or VWF A1 domain 0.0612-1.0 µg/ml; 1:1 Langmuir model; values of the single independent kinetic runs
# [3] = target: T1, human plasma von Willebrand factor (human, UniProt P04275 764-2813); assay: peptide or protein array; 141 overlapping 15mer peptides of enolase (offset three) on cellulose membrane, overlay with 2.0 μg/ml VWF, detected with anti-VWF antibody; conditions: both partners purified
# T1 construct: von Willebrand factor, human, derived from plasma; called 'full length VWF' in the SPR methods, as against the single A domains; Glycoprotein from plasma that circulates as multimers; also called VWF; plasma VWF; source: bought: Merck Chemicals (human plasma VWF)
# recombinant enolase protein (rEno) of S. pneumoniae serotype 2 (ATCC 11733) (Streptococcus pneumoniae serotype 2 (ATCC 11733)), sequence (Q04KG2 whole entry, the tested form may be a part): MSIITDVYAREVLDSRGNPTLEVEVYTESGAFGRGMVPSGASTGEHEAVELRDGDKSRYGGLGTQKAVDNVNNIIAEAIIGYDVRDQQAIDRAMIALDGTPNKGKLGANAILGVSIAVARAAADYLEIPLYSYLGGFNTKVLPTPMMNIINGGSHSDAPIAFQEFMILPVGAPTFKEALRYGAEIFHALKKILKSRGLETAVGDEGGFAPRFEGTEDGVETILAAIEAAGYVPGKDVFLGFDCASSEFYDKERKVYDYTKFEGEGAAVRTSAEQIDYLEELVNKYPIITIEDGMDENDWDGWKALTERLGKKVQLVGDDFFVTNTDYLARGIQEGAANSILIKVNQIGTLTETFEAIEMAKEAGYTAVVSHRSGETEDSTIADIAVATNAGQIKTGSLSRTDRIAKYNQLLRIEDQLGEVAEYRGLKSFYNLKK
# recombinant enolase of S. pneumoniae serotype 2 (ATCC 11733) (Streptococcus pneumoniae serotype 2 (ATCC 11733)), sequence (Q97QS2 whole entry, the tested form may be a part): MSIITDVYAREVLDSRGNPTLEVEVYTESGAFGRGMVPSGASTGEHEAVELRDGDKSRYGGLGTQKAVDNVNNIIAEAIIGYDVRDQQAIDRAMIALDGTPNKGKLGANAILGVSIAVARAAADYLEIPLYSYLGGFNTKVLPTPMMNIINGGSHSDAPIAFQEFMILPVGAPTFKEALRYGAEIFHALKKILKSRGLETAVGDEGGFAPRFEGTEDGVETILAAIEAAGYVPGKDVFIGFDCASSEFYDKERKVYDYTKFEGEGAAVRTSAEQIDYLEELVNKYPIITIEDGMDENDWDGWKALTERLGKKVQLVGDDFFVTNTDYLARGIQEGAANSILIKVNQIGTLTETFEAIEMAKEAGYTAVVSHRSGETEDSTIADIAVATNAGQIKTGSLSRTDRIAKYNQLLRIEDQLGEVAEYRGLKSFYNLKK
molecule,measurement,setting,value
recombinant VWF domain A1 (domain or fragment),Kd,[1],0.208 nM
recombinant VWF domain A1 (from UniProt P04275 23-2813) (domain or fragment),Kd,[2],2.18 nM and 1.79 nM and 0.585 nM
same,koff,[2],0.00126 s⁻¹ and 0.00175 s⁻¹ and 0.0013 s⁻¹
"YGAEIFHALKKILKS (residues 181-195 of the enolase of S. pneumoniae; one 15mer of the peptide spot array; Synthesised as a spot and held on the cellulose membrane; also called core peptide of region no; source: synthetic peptide, spot on an amino pegylated cellulose membrane) [enolase peptide 181YGAEIFHALKKILKS195]",binding result,[3],binds
